Test results as given in patent US20230272056A1 (Merck Sharp & Dohme, published 2023).

Each binder was assayed against T1, human LAP-TGFB1 Fc fusion (human) (assay: BLI off-rate screen).
T1 construct: also called human LAP-TGFβ1-Fc; human LAP-TGFβ-Fc isoform 1
Description: The Fab mutants including a positive control, 20E6 Fab, and a negative control Fab (Molecular Innovations, catalog HU-FAB-4510) were diluted to 200 nM in assay buffer and loaded to FAB2G sensors for 180 seconds followed by a one-hour incubation at room temperature in assay buffer to equilibrate the tips. The Fab loaded sensors were assessed for binding with 100 nM human LAP-TGFβ for 180 seconds followed by a 180 second dissociation phase in assay buffer on a ForteBio HTX (software version 9.0.0.66). Non-specific binding to the negative control Fab was subtracted and the binding sensorgrams were aligned to the start of the association phase on the X and Y axis. The Fab binding was fit with the 1:1 binding model, dissociation phase only, with local fitting using ForteBio Data Analysis 9.0 software.
Twenty-three variants containing a single tyrosine substitution in the light chain CDRs (at one of amino acid positions 24-31, 33, 34, 51-56, and 89-95 according to Kabat numbering scheme) and 21 similar heavy chain CDR variants (at amino acids positions 28-31, 33-35, 50-58 including 52a, 95, 96, 98, and 99 according to Kabat numbering scheme) were generated according to FIG. 1 and listed in Table 6 and their interactions with human LAP-TGFb1 were analyzed by ForteBio interferometry. […] In those sequences the VL is correct, even though these sequences are from the heavy chain. Thus, the VL_X ##Y refers to the position of the tyrosine mutation within the antibody, regardless of whether the sequence is a heavy or light chain.

T1 sequence (chain, as listed by the source limits assumed): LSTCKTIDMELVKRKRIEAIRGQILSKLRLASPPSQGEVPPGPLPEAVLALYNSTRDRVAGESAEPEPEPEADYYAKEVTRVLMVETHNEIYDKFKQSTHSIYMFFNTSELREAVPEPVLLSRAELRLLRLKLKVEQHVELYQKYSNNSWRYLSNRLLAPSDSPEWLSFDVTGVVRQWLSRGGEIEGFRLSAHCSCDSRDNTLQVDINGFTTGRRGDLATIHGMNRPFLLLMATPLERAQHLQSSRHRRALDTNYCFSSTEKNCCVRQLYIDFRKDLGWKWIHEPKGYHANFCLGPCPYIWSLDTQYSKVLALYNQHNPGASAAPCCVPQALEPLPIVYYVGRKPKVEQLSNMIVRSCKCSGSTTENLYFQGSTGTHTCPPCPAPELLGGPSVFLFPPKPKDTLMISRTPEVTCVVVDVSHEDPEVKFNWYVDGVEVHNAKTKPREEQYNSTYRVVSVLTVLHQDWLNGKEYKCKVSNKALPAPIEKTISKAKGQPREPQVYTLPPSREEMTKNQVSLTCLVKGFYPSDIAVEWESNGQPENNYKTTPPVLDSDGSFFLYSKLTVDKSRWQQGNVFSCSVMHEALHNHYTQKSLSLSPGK

Binding response | binding result | Fold change | koff | Binder
0.042 nm | no binding (tested: 100 nM antigen) | – | – | VH D52Y (77BIT) (Fab, V domains shown) VH: EVQLVQSGAEVKKPGASVKVSCKASGYTFTSYWMHWVRQAPGQGLEWMGRIYPQSGGIKYAQKFQGRATLTVDTSTSTAYMELSRLRSDDTAVYYCARWDYGGYFDVWGQGTLVTVSS VL: DIQMTQSPSSLSASVGDRVTITCRASQDITNYLNWYQQKPGKAVKLLIYYTSRLHSGVPSRFSGSGSGTDYTLTISSLQPEDFATYFCQQGDTLPWTFGQGTKLEIKR
0.597 nm | – | 1.3 fold | 0.0336 s⁻¹ | VH F29Y (68BIT) (Fab, V domains shown) VH: EVQLVQSGAEVKKPGASVKVSCKASGYTYTSYWMHWVRQAPGQGLEWMGRIDPQSGGIKYAQKFQGRATLTVDTSTSTAYMELSRLRSDDTAVYYCARWDYGGYFDVWGQGTLVTVSS VL: DIQMTQSPSSLSASVGDRVTITCRASQDITNYLNWYQQKPGKAVKLLIYYTSRLHSGVPSRFSGSGSGTDYTLTISSLQPEDFATYFCQQGDTLPWTFGQGTKLEIKR
0.566 nm | – | 0.9 fold | 0.0454 s⁻¹ | VH P52aY (78BIT) (Fab, V domains shown) VH: EVQLVQSGAEVKKPGASVKVSCKASGYTFTSYWMHWVRQAPGQGLEWMGRIDYQSGGIKYAQKFQGRATLTVDTSTSTAYMELSRLRSDDTAVYYCARWDYGGYFDVWGQGTLVTVSS VL: DIQMTQSPSSLSASVGDRVTITCRASQDITNYLNWYQQKPGKAVKLLIYYTSRLHSGVPSRFSGSGSGTDYTLTISSLQPEDFATYFCQQGDTLPWTFGQGTKLEIKR
0.102 nm | – | 0.6 fold | 0.0746 s⁻¹ | VH D96Y (64BIT) (Fab, V domains shown) VH: EVQLVQSGAEVKKPGASVKVSCKASGYTFTSYWMHWVRQAPGQGLEWMGRIDPQSGGIKYAQKFQGRATLTVDTSTSTAYMELSRLRSDDTAVYYCARWYYGGYFDVWGQGTLVTVSS VL: DIQMTQSPSSLSASVGDRVTITCRASQDITNYLNWYQQKPGKAVKLLIYYTSRLHSGVPSRFSGSGSGTDYTLTISSLQPEDFATYFCQQGDTLPWTFGQGTKLEIKR
0.555 nm | – | 1 fold | 0.043 s⁻¹ | VH I57Y (83BIT) (Fab, V domains shown) VH: EVQLVQSGAEVKKPGASVKVSCKASGYTFTSYWMHWVRQAPGQGLEWMGRIDPQSGGYKYAQKFQGRATLTVDTSTSTAYMELSRLRSDDTAVYYCARWDYGGYFDVWGQGTLVTVSS VL: DIQMTQSPSSLSASVGDRVTITCRASQDITNYLNWYQQKPGKAVKLLIYYTSRLHSGVPSRFSGSGSGTDYTLTISSLQPEDFATYFCQQGDTLPWTFGQGTKLEIKR
0.037 nm | no binding (tested: 100 nM antigen) | – | – | VH G98Y (65BIT) (Fab, V domains shown) VH: EVQLVQSGAEVKKPGASVKVSCKASGYTFTSYWMHWVRQAPGQGLEWMGRIDPQSGGIKYAQKFQGRATLTVDTSTSTAYMELSRLRSDDTAVYYCARWDYYGYFDVWGQGTLVTVSS VL: DIQMTQSPSSLSASVGDRVTITCRASQDITNYLNWYQQKPGKAVKLLIYYTSRLHSGVPSRFSGSGSGTDYTLTISSLQPEDFATYFCQQGDTLPWTFGQGTKLEIKR
0.334 nm | – | 0.9 fold | 0.0471 s⁻¹ | VH H35Y (73BIT) (Fab, V domains shown) VH: EVQLVQSGAEVKKPGASVKVSCKASGYTFTSYWMYWVRQAPGQGLEWMGRIDPQSGGIKYAQKFQGRATLTVDTSTSTAYMELSRLRSDDTAVYYCARWDYGGYFDVWGQGTLVTVSS VL: DIQMTQSPSSLSASVGDRVTITCRASQDITNYLNWYQQKPGKAVKLLIYYTSRLHSGVPSRFSGSGSGTDYTLTISSLQPEDFATYFCQQGDTLPWTFGQGTKLEIKR
0.6 nm | – | 1.1 fold | 0.0379 s⁻¹ | VH I51Y (76BIT) (Fab, V domains shown) VH: EVQLVQSGAEVKKPGASVKVSCKASGYTFTSYWMHWVRQAPGQGLEWMGRYDPQSGGIKYAQKFQGRATLTVDTSTSTAYMELSRLRSDDTAVYYCARWDYGGYFDVWGQGTLVTVSS VL: DIQMTQSPSSLSASVGDRVTITCRASQDITNYLNWYQQKPGKAVKLLIYYTSRLHSGVPSRFSGSGSGTDYTLTISSLQPEDFATYFCQQGDTLPWTFGQGTKLEIKR
0.055 nm | – | 0.9 fold | 0.0476 s⁻¹ | VH G99Y (66BIT) (Fab, V domains shown) VH: EVQLVQSGAEVKKPGASVKVSCKASGYTFTSYWMHWVRQAPGQGLEWMGRIDPQSGGIKYAQKFQGRATLTVDTSTSTAYMELSRLRSDDTAVYYCARWDYGYYFDVWGQGTLVTVSS VL: DIQMTQSPSSLSASVGDRVTITCRASQDITNYLNWYQQKPGKAVKLLIYYTSRLHSGVPSRFSGSGSGTDYTLTISSLQPEDFATYFCQQGDTLPWTFGQGTKLEIKR
0.623 nm | – | 1 fold | 0.0414 s⁻¹ | VH M34Y (72BIT) (Fab, V domains shown) VH: EVQLVQSGAEVKKPGASVKVSCKASGYTFTSYWYHWVRQAPGQGLEWMGRIDPQSGGIKYAQKFQGRATLTVDTSTSTAYMELSRLRSDDTAVYYCARWDYGGYFDVWGQGTLVTVSS VL: DIQMTQSPSSLSASVGDRVTITCRASQDITNYLNWYQQKPGKAVKLLIYYTSRLHSGVPSRFSGSGSGTDYTLTISSLQPEDFATYFCQQGDTLPWTFGQGTKLEIKR
0.339 nm | – | 1.3 fold | 0.0327 s⁻¹ | VH K58Y (84BIT) (Fab, V domains shown) VH: EVQLVQSGAEVKKPGASVKVSCKASGYTFTSYWMHWVRQAPGQGLEWMGRIDPQSGGIYYAQKFQGRATLTVDTSTSTAYMELSRLRSDDTAVYYCARWDYGGYFDVWGQGTLVTVSS VL: DIQMTQSPSSLSASVGDRVTITCRASQDITNYLNWYQQKPGKAVKLLIYYTSRLHSGVPSRFSGSGSGTDYTLTISSLQPEDFATYFCQQGDTLPWTFGQGTKLEIKR
0.569 nm | – | 1 fold | 0.0436 s⁻¹ | VH G56Y (82BIT) (Fab, V domains shown) VH: EVQLVQSGAEVKKPGASVKVSCKASGYTFTSYWMHWVRQAPGQGLEWMGRIDPQSGYIKYAQKFQGRATLTVDTSTSTAYMELSRLRSDDTAVYYCARWDYGGYFDVWGQGTLVTVSS VL: DIQMTQSPSSLSASVGDRVTITCRASQDITNYLNWYQQKPGKAVKLLIYYTSRLHSGVPSRFSGSGSGTDYTLTISSLQPEDFATYFCQQGDTLPWTFGQGTKLEIKR
0.625 nm | – | 1 fold | 0.0416 s⁻¹ | VH Q53Y (79BIT) (Fab, V domains shown) VH: EVQLVQSGAEVKKPGASVKVSCKASGYTFTSYWMHWVRQAPGQGLEWMGRIDPYSGGIKYAQKFQGRATLTVDTSTSTAYMELSRLRSDDTAVYYCARWDYGGYFDVWGQGTLVTVSS VL: DIQMTQSPSSLSASVGDRVTITCRASQDITNYLNWYQQKPGKAVKLLIYYTSRLHSGVPSRFSGSGSGTDYTLTISSLQPEDFATYFCQQGDTLPWTFGQGTKLEIKR
0.542 nm | – | 1.2 fold | 0.036 s⁻¹ | VH G55Y (81BIT) (Fab, V domains shown) VH: EVQLVQSGAEVKKPGASVKVSCKASGYTFTSYWMHWVRQAPGQGLEWMGRIDPQSYGIKYAQKFQGRATLTVDTSTSTAYMELSRLRSDDTAVYYCARWDYGGYFDVWGQGTLVTVSS VL: DIQMTQSPSSLSASVGDRVTITCRASQDITNYLNWYQQKPGKAVKLLIYYTSRLHSGVPSRFSGSGSGTDYTLTISSLQPEDFATYFCQQGDTLPWTFGQGTKLEIKR
